Reference: patent US20030199423A1

T1: soluble human ICAM-R (human), P32942
T1 chain: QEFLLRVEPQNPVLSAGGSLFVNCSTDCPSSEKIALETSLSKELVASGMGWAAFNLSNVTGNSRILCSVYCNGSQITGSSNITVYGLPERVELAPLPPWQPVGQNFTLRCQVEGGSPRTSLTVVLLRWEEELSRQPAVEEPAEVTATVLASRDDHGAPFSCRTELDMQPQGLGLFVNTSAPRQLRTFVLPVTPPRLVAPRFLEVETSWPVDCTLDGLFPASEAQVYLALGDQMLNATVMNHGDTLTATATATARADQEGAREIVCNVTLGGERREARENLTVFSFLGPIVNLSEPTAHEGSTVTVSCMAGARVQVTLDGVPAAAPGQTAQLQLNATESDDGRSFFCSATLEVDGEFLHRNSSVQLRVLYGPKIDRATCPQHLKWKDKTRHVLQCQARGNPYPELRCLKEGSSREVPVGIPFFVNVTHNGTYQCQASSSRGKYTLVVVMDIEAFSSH

B1: recombinant ICR-8.1 antibody miHuVHI/MuVK (antibody)
chain 1: QIQLVQSGAEVKKPGASVKVSCKASGYTFTDCIILWVRQAPGQGLEWMGKINPYFGTTTYAQKFQGRVTITADTSTSTAYMELSSLRSEDTAVYYCARKEAYPDAMDYWGQGTLVTVSS
chain 2: DAVMTQTPLSLPVSLGDQASISCRSSQSLVHSNGDTYLHWYLQKPGQSPQLLIYKVSNRFSGVPDRFSGSGSGTDFTLKLSRVEAEDLGVYFCSQSTHVPYTFGGGTKLEIK
modifications: not checked

Columns and labels:
[1] = biological target: CD18-independent counterreceptor for ICAM-R on Jurkat cells; assay: inhibition of Jurkat cell adhesion to coated soluble ICAM-R, peptide 1-2 mg/ml
[2] = biological target: T1, soluble human ICAM-R (human), P32942; assay: blocking of biotinylated murine ICR-8.1 binding to ICAM-R; competitor murine ICR-8.1
[3] = biological target: T1, soluble human ICAM-R (human), P32942; assay: ELISA on coated baculovirus soluble ICAM-R

Row | Binder | % Inhibition [1] | fold less well competing than murine ICR-8.1 [2] | fold improvement in binding over the other recombinant ICR-8.1 antibodies [3]
1 | NGSQI [ICAM-R domain 1 peptide (NGSQI), residues 72-76] | 17% | – | –
2 | EKIALET [ICAM-R peptide, residues 32-38] | 10% | – | –
3 | GDQRL [ICAM-1 peptide (GDQRL), residues 228-232] | 22% | – | –
4 | GERREA [ICAM-R peptide, residues 271-276] | 11% | – | –
5 | GDQML [ICAM-R domain 3 peptide (GDQML), residues 230-234] | 36% | – | –
6 | DGQST [ICAM-1 peptide (DGQST), residues 70-74] | 9% | – | –
7 | B1 | – | 2 fold | 2 fold
